Reference: the supplement of paper PMC10567573

B1: PLK2 (parent)
chain: YAELGQCSVFPATDAPEQFISQVT

Variants of: B1
Experiment: protein stability index of a GFP-peptide fusion (GPS, HEK-293T) (PSI 1-6); higher = more stable
Settings: c terminus: a fixed tail appended
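Note: lentivirally expressed fusions sorted by FACS into six bins by GFP to DsRed ratio, PSI derived from sequencing read proportions per bin multiplied by bin number.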

| Variant | protein stability index |
| --- | --- |
| YAELGQCSVAPATDAPEQFISQVT | 3.34 |
| YAELGQCSVLPATDAPEQFISQVT | 3.27 |
| YAELGQCSVPPATDAPEQFISQVT | 3.58 |
| YAELGQCSVKPATDAPEQFISQVT | 3.26 |
| YAELGQCSVYPATDAPEQFISQVT | 2.4 |
| YAELGQCSVEPATDAPEQFISQVT | 3.68 |
| YAELGQCSVMPATDAPEQFISQVT | 3.06 |
| YAELGQCSVQPATDAPEQFISQVT | 3.46 |
| YAELGQCSVFPATDAPEQFIHQVT | 1.8 |
| YAELGQCSVFPATDAPEQFIQQVT | 1.89 |
| YAELGQCSVFPATDAPEQFIRQVT | 1.76 |
| YAELGQCSVFPATDAPEQFIYQVT | 1.57 |
| YAELGQCSVFPATDAPEQFIFQVT | 1.82 |
| YAELGQCSVFPATDAPEYFISQVT | 2.26 |
| YAELGQCSVFPATDAPEAFISQVT | 1.87 |
| YAELGQCSVFPATDAPEIFISQVT | 2.02 |
| YAELGQCSVFPATDAPEKFISQVT | 2.08 |
| YAELGQCSVFPATDAPEPFISQVT | 2.01 |
| YAELGQCSVFPATDAPEDFISQVT | 2.98 |
| YAELGQCSVFPATDAPEQFISDVT | 2.75 |
| YAELGQCSVFPATDAPEQFISCVT | 1.72 |
| YAELGQCSVFPATDAPEQFISGVT | 2.36 |
| YAELGQCSVFPATDAPEQFISKVT | 1.77 |
| YAELGQCSVFPATDAPEQFISPVT | 2.47 |

| Variant | protein stability index |
| --- | --- |
| YAELGQCSVFPATDAPEQFISSVT | 2.06 |
| YAELGQCSVFPATDAPEQFISAVT | 1.94 |
| YAELGQCSEFPATDAPEQFISQVT | 3.64 |
| YAELGQCSRFPATDAPEQFISQVT | 2.17 |
| YAELGQCSAFPATDAPEQFISQVT | 2.36 |
| YAELGQCSHFPATDAPEQFISQVT | 2.69 |
| YAELGQCSPFPATDAPEQFISQVT | 2.41 |
| YAELGQCSWFPATDAPEQFISQVT | 2.5 |
| YAELGQCSYFPATDAPEQFISQVT | 2.02 |
| YAELGQCSFFPATDAPEQFISQVT | 1.67 |
| YAELGQCSMFPATDAPEQFISQVT | 1.98 |
| YAELGQCSKFPATDAPEQFISQVT | 2.88 |
| YAELGQCSVFPAPDAPEQFISQVT | 2.17 |
| YAELGQCSVFPAIDAPEQFISQVT | 1.81 |
| YAELGQCSVFPARDAPEQFISQVT | 2.22 |
| YAELGQCSVFPADDAPEQFISQVT | 2.8 |
| YAELGQCSVFPAEDAPEQFISQVT | 3.45 |
| YAELGQCSVFPAKDAPEQFISQVT | 2 |
| YAELGQCSVFPAFDAPEQFISQVT | 1.33 |
| YAELGQCSVFPAADAPEQFISQVT | 2.49 |
| YAELGQCSVFPAQDAPEQFISQVT | 2.57 |
| YAELGICSVFPATDAPEQFISQVT | 1.57 |
| YAELGTCSVFPATDAPEQFISQVT | 2.42 |
| YAELGKCSVFPATDAPEQFISQVT | 2.05 |

| Variant | protein stability index |
| --- | --- |
| YAELGVCSVFPATDAPEQFISQVT | 1.94 |
| YAELGHCSVFPATDAPEQFISQVT | 2.02 |
| YAELGGCSVFPATDAPEQFISQVT | 2.04 |
| YAELGFCSVFPATDAPEQFISQVT | 2.14 |
| YAELGACSVFPATDAPEQFISQVT | 2.18 |
| YAELGQCSVFPATDAPEQFISQRT | 2.54 |
| YAELGQCSVFPATDAPEQFISQWT | 2.39 |
| YAELGQCSVFPATDAPEQFISQGT | 2.52 |
| YAELGQCSVFPATDAPEQFISQHT | 1.98 |
| YAELGQCSVFPATDAPEQFISQAT | 2.39 |
| YAELGQCSVFPATDAPEQFISQIT | 1.74 |
| YAELGQCSVFPATDAPEQFISQYT | 1.98 |
| YAELGQCSVFPATDAPEQFISQQT | 2.56 |
| YAELGQCSVFPATDAPEQFISQCT | 2.95 |
| YAELGQCSVFPATDAPEQFISQDT | 3.06 |
| YNELGQCSVFPATDAPEQFISQVT | 3.75 |
| YHELGQCSVFPATDAPEQFISQVT | 2.57 |
| YIELGQCSVFPATDAPEQFISQVT | 1.64 |
| YLELGQCSVFPATDAPEQFISQVT | 2.36 |
| YQELGQCSVFPATDAPEQFISQVT | 2.79 |
| YSELGQCSVFPATDAPEQFISQVT | 3.15 |
| YTELGQCSVFPATDAPEQFISQVT | 2.25 |
| YGELGQCSVFPATDAPEQFISQVT | 3.29 |
| YEELGQCSVFPATDAPEQFISQVT | 4.46 |

| Variant | protein stability index |
| --- | --- |
| YAELGQCRVFPATDAPEQFISQVT | 1.9 |
| YAELGQCEVFPATDAPEQFISQVT | 3.17 |
| YAELGQCYVFPATDAPEQFISQVT | 1.59 |
| YAELGQCAVFPATDAPEQFISQVT | 1.87 |
| YAELGQCIVFPATDAPEQFISQVT | 1.75 |
| YAELGQCLVFPATDAPEQFISQVT | 1.62 |
| YAELGQCHVFPATDAPEQFISQVT | 1.83 |
| YAELGQCDVFPATDAPEQFISQVT | 3.06 |
| YAELGQCGVFPATDAPEQFISQVT | 1.93 |
| YAELGQCCVFPATDAPEQFISQVT | 1.64 |
| YAELGQCWVFPATDAPEQFISQVT | 3.17 |
| YAELGQCSVFPATGAPEQFISQVT | 2 |
| YAELGQCSVFPATIAPEQFISQVT | 2.02 |
| YAELGQCSVFPATSAPEQFISQVT | 2.09 |
| YAELGQCSVFPATTAPEQFISQVT | 1.94 |
| YAELGQCSVFPATMAPEQFISQVT | 1.75 |
| YANLGQCSVFPATDAPEQFISQVT | 2.08 |
| YAMLGQCSVFPATDAPEQFISQVT | 1.97 |
| YAFLGQCSVFPATDAPEQFISQVT | 1.94 |
| YATLGQCSVFPATDAPEQFISQVT | 1.98 |
| YAILGQCSVFPATDAPEQFISQVT | 1.63 |
| YAVLGQCSVFPATDAPEQFISQVT | 2.31 |
